Experimental data taken from patent publication US12662541B2, “Antibody-drug conjugates against the receptor tyrosine kinase EphA5” (Rutgers, The State University of New Jersey, priority 2021, dated 2026).

Columns and labels:
rhEphA5 antigen [1] = molecular target: T1, rhEphA5 antigen (Homo sapiens, UniProt P54756); experiment: ka (1/Ms)
T1 construct: purchased R and D systems 3036-A5
Protocol: (§1) Table printed on a drawing sheet, FIG. 13
(§2) Head of the field: ka (1/Ms)
(§3) The patent's description of the figure: FIG. 13 is a table illustrating the single cycle kinetic parameters of chimeric (VH0/VK0) and humanized 11C12 variants (tested as cell culture supernatants) binding to rhEphA5 antigen as determined using the Biacore T200. The relative KD was calculated by dividing the KD of the humanized variant by that of the VH0/VK0 (top row) assayed in the same experiment. The variants marked with ‘*’ have KD values that are within two-fold of, or are better than, the chimeric antibody. The chimeric and selected variants marked in ‘#’ were identified as the main leads for purification. […]
(§4) Where the first naming reader finds the target: description_of_the_figure: humanized 11C12 variants (tested as cell culture supernatants) binding to rhEphA5 antigen as determined using the Biacore T200

rhEphA5 antigen [2] = molecular target: T1, rhEphA5 antigen; experiment: kd (1/s)
Protocol: as §1
(§5) Head of the field: kd (1/s)
as §3, §4

rhEphA5 antigen [3] = molecular target: T1, rhEphA5 antigen; experiment: KD (M)
Protocol: as §1
Head of the field: KD (M)
as §3, §4

EphA5 antigen [4] = molecular target: T2, EphA5 antigen (Homo sapiens, UniProt P54756); experiment: ka (1/Ms)
T2 construct: purchased R and D systems 3036-A5
Protocol: (§6) Table printed on a drawing sheet, FIG. 19
as §2
(§7) The patent's description of the figure: FIG. 19 is a table illustrating the Multi-cycle kinetic parameters of chimeric (VH0/VK0) and humanized variants (tested as purified proteins) binding to EphA5 antigen as determined using the Biacore T200. The relative KD was calculated by dividing the KD of the humanized variant by that of the VH0VK0 (first row) assayed in the same experiment. […]
(§8) Where the first naming reader finds the target: description_of_the_figure: humanized variants (tested as purified proteins) binding to EphA5 antigen as determined using the Biacore T200

EphA5 antigen [5] = molecular target: T2, EphA5 antigen; experiment: kd (1/s)
Protocol: as §6, §5, §7, §8

Molecule | ka (rhEphA5 antigen [1]) | kd (rhEphA5 antigen [2]) | Kd (rhEphA5 antigen [3]) | ka (EphA5 antigen [4]) | kd (EphA5 antigen [5])
VH2/VK2: humanized anti-EphA5 antibody, VH SEQ ID NO:3, VL SEQ ID NO:10 (antibody, V domains shown) VH: EVTLVESGGGLVQPGGSLKLSCAASGFTFSTFGIHWVRQAPGKGLEWVAYISGASTTIYYADTVKGRFTISRDNSKNTLYLQMNSLRSEDTAMYYCARYGTSFPYGLDYWGQGTLVTVSS VL: DIVMTQSPDSLAVSLGERATINCKASQSVDYDGDSYMNWYQQKPGKAPKLLIYGASNLESGIPDRFSGSGSGTDFTLTISRLEPEDAASYYCQQSNEDPFTFGQGTKLEIK | 1.3e+06 M⁻¹ s⁻¹ | 0.00126 s⁻¹ | 0.971 nM | – | –
VH3/VK1: humanized anti-EphA5 antibody, VH SEQ ID NO:4, VL SEQ ID NO:9 (antibody, V domains shown) VH: EVQLVESGGGLVQPGGSLKLSCAASGFTFSTFGIHWVRQAPGKGLEWVAYISGASTTIYYADTVKGRFTISRDNSKNTLYLQMNSLRSEDTAMYYCARYGTSFPYGLDYWGQGTLVTVSS VL: DIVMTQSPGSLAVSLGERATINCKASQSVDYDGDSYMNWYQQKPGKAPKLLIYGASNLESGIPDRFSGSGSGTDFTLTISRLEEEDAASYYCQQSNEDPFTFGQGTKLEIK | 1.39e+06 M⁻¹ s⁻¹ | 0.00123 s⁻¹ | 0.884 nM | – | –
VH4/VK4: humanized anti-EphA5 antibody, VH SEQ ID NO:5, VL SEQ ID NO:12; lead variant (antibody, V domains shown) VH: EVQLVESGGGLVQPGGSLKLSCAASGFTFSTFGIHWVRQAPGKGLEWVAYISGASTTIYYADTVKGRFTISRDNSKNTLYLQMNSLRAEDTAVYYCARYGTSFPYGLDYWGQGTLVTVSS VL: DIVMTQSPDSLAVSLGERATINCKSSQSVDYDGDSYMNWYQQKPGKAPKLLIYGASNLESGIPDRFSGSGSGTDFTLTISRLEPEDAASYYCQQSNEDPFTFGQGTKLEIK | – | 0.0014 s⁻¹ | – | 1.27e+06 M⁻¹ s⁻¹ | 0.00132 s⁻¹
VH2/VK4: humanized anti-EphA5 antibody, VH SEQ ID NO:3, VL SEQ ID NO:12 (antibody, V domains shown) VH: EVTLVESGGGLVQPGGSLKLSCAASGFTFSTFGIHWVRQAPGKGLEWVAYISGASTTIYYADTVKGRFTISRDNSKNTLYLQMNSLRSEDTAMYYCARYGTSFPYGLDYWGQGTLVTVSS VL: DIVMTQSPDSLAVSLGERATINCKSSQSVDYDGDSYMNWYQQKPGKAPKLLIYGASNLESGIPDRFSGSGSGTDFTLTISRLEPEDAASYYCQQSNEDPFTFGQGTKLEIK | 1.37e-06 M⁻¹ s⁻¹ | 0.00126 s⁻¹ | 0.917 nM | – | –
VH1/VK2: humanized anti-EphA5 antibody, VH SEQ ID NO:2, VL SEQ ID NO:10 (antibody, V domains shown) VH: EVTLVESGGGLVQPGGSRKLSCAASGFTFSTFGIHWVRQAPGKGLEWVAYISGASTTIYYADTVKGRFTISRDNSKNTLYLQMNSLRSEDTAMYYCARYGTSFPYGLDYWGQGTSVTVSS VL: DIVMTQSPDSLAVSLGERATINCKASQSVDYDGDSYMNWYQQKPGKAPKLLIYGASNLESGIPDRFSGSGSGTDFTLTISRLEPEDAASYYCQQSNEDPFTFGQGTKLEIK | 1.31e-06 M⁻¹ s⁻¹ | 0.00126 s⁻¹ | 0.968 nM | – | –
VH1/VK3: humanized anti-EphA5 antibody, VH SEQ ID NO:2, VL SEQ ID NO:11 (antibody, V domains shown) VH: EVTLVESGGGLVQPGGSRKLSCAASGFTFSTFGIHWVRQAPGKGLEWVAYISGASTTIYYADTVKGRFTISRDNSKNTLYLQMNSLRSEDTAMYYCARYGTSFPYGLDYWGQGTSVTVSS VL: DIVMTQSPDSLAVSLGERATINCKASQSVDYDGDSYMNWYQQKPGKAPKLLIYGASNLESGIPDRFSGSGSGTDFTLTISRLEPEDAAVYYCQQSNEDPFTFGQGTKLEIK | – | 0.00125 s⁻¹ | 0.948 nM | – | –
VH1/VK1: humanized anti-EphA5 antibody, VH SEQ ID NO:2, VL SEQ ID NO:9 (antibody, V domains shown) VH: EVTLVESGGGLVQPGGSRKLSCAASGFTFSTFGIHWVRQAPGKGLEWVAYISGASTTIYYADTVKGRFTISRDNSKNTLYLQMNSLRSEDTAMYYCARYGTSFPYGLDYWGQGTSVTVSS VL: DIVMTQSPGSLAVSLGERATINCKASQSVDYDGDSYMNWYQQKPGKAPKLLIYGASNLESGIPDRFSGSGSGTDFTLTISRLEEEDAASYYCQQSNEDPFTFGQGTKLEIK | 1.25e-06 M⁻¹ s⁻¹ | 0.00128 s⁻¹ | 1.02 nM | – | –
VH3/VK2: humanized anti-EphA5 antibody, VH SEQ ID NO:4, VL SEQ ID NO:10 (antibody, V domains shown) VH: EVQLVESGGGLVQPGGSLKLSCAASGFTFSTFGIHWVRQAPGKGLEWVAYISGASTTIYYADTVKGRFTISRDNSKNTLYLQMNSLRSEDTAMYYCARYGTSFPYGLDYWGQGTLVTVSS VL: DIVMTQSPDSLAVSLGERATINCKASQSVDYDGDSYMNWYQQKPGKAPKLLIYGASNLESGIPDRFSGSGSGTDFTLTISRLEPEDAASYYCQQSNEDPFTFGQGTKLEIK | 1.34e+06 M⁻¹ s⁻¹ | 0.0013 s⁻¹ | 0.968 nM | – | –

Continued by falling Kd (rhEphA5 antigen [3]), values first:

ka (rhEphA5 antigen [1]) | kd (rhEphA5 antigen [2]) | Kd (rhEphA5 antigen [3]) | ka (EphA5 antigen [4]) | kd (EphA5 antigen [5]) | Molecule
– | 0.00139 s⁻¹ | 1.12 nM | – | – | VH1/VK5: humanized anti-EphA5 antibody, VH SEQ ID NO:2, VL SEQ ID NO:13 (antibody, V domains shown) VH: EVTLVESGGGLVQPGGSRKLSCAASGFTFSTFGIHWVRQAPGKGLEWVAYISGASTTIYYADTVKGRFTISRDNSKNTLYLQMNSLRSEDTAMYYCARYGTSFPYGLDYWGQGTSVTVSS VL: DIVMTQSPDSLAVSLGERATINCKSSQSVDYDGDSYMNWYQQKPGKAPKLLIYGASNLESGIPDRFSGSGSGTDFTLTISRLEPEDAAVYYCQQSNEDPFTFGQGTKLEIK
1.29e+06 M⁻¹ s⁻¹ | 0.00143 s⁻¹ | 1.1 nM | – | – | VH3/VK5: humanized anti-EphA5 antibody, VH SEQ ID NO:4, VL SEQ ID NO:13 (antibody, V domains shown) VH: EVQLVESGGGLVQPGGSLKLSCAASGFTFSTFGIHWVRQAPGKGLEWVAYISGASTTIYYADTVKGRFTISRDNSKNTLYLQMNSLRSEDTAMYYCARYGTSFPYGLDYWGQGTLVTVSS VL: DIVMTQSPDSLAVSLGERATINCKSSQSVDYDGDSYMNWYQQKPGKAPKLLIYGASNLESGIPDRFSGSGSGTDFTLTISRLEPEDAAVYYCQQSNEDPFTFGQGTKLEIK
– | 0.00137 s⁻¹ | 1.1 nM | – | – | VH1/VK4: humanized anti-EphA5 antibody, VH SEQ ID NO:2, VL SEQ ID NO:12 (antibody, V domains shown) VH: EVTLVESGGGLVQPGGSRKLSCAASGFTFSTFGIHWVRQAPGKGLEWVAYISGASTTIYYADTVKGRFTISRDNSKNTLYLQMNSLRSEDTAMYYCARYGTSFPYGLDYWGQGTSVTVSS VL: DIVMTQSPDSLAVSLGERATINCKSSQSVDYDGDSYMNWYQQKPGKAPKLLIYGASNLESGIPDRFSGSGSGTDFTLTISRLEPEDAASYYCQQSNEDPFTFGQGTKLEIK
1.34e+06 M⁻¹ s⁻¹ | 0.0014 s⁻¹ | 1.05 nM | – | – | VH2/VK5: humanized anti-EphA5 antibody, VH SEQ ID NO:3, VL SEQ ID NO:13 (antibody, V domains shown) VH: EVTLVESGGGLVQPGGSLKLSCAASGFTFSTFGIHWVRQAPGKGLEWVAYISGASTTIYYADTVKGRFTISRDNSKNTLYLQMNSLRSEDTAMYYCARYGTSFPYGLDYWGQGTLVTVSS VL: DIVMTQSPDSLAVSLGERATINCKSSQSVDYDGDSYMNWYQQKPGKAPKLLIYGASNLESGIPDRFSGSGSGTDFTLTISRLEPEDAAVYYCQQSNEDPFTFGQGTKLEIK
1.32e+06 M⁻¹ s⁻¹ | 0.00133 s⁻¹ | 1.01 nM | – | – | VH3/VK3: humanized anti-EphA5 antibody, VH SEQ ID NO:4, VL SEQ ID NO:11 (antibody, V domains shown) VH: EVQLVESGGGLVQPGGSLKLSCAASGFTFSTFGIHWVRQAPGKGLEWVAYISGASTTIYYADTVKGRFTISRDNSKNTLYLQMNSLRSEDTAMYYCARYGTSFPYGLDYWGQGTLVTVSS VL: DIVMTQSPDSLAVSLGERATINCKASQSVDYDGDSYMNWYQQKPGKAPKLLIYGASNLESGIPDRFSGSGSGTDFTLTISRLEPEDAAVYYCQQSNEDPFTFGQGTKLEIK
1.35e-06 M⁻¹ s⁻¹ | 0.0012 s⁻¹ | 0.89 nM | – | – | VH2/VK1: humanized anti-EphA5 antibody, VH SEQ ID NO:3, VL SEQ ID NO:9 (antibody, V domains shown) VH: EVTLVESGGGLVQPGGSLKLSCAASGFTFSTFGIHWVRQAPGKGLEWVAYISGASTTIYYADTVKGRFTISRDNSKNTLYLQMNSLRSEDTAMYYCARYGTSFPYGLDYWGQGTLVTVSS VL: DIVMTQSPGSLAVSLGERATINCKASQSVDYDGDSYMNWYQQKPGKAPKLLIYGASNLESGIPDRFSGSGSGTDFTLTISRLEEEDAASYYCQQSNEDPFTFGQGTKLEIK
